Experimental data from paper doi:10.1101/2023.08.15.553463.

Target: actin filaments (F-actin) polymerised from chicken skeletal muscle actin (chicken) (UniProt P68139)
Experiment: TIRF microscopy (gliding filament assay); unpatterned PEG-silane coverslips with 50 nM myosin-5; 1 μM phalloidin-labelled F-actin pre-incubated with 1, 2, 5 or 10 nM CPC for 15 min at room temperature; imaging buffer with 2 mM ATP and calmodulin; about 25°C

median time to rupture of paired filament complexes under myosin-5 tension: 26 to 29 s
Substance: capping protein complex (CPC): two CapZAB capping protein heterodimers covalently attached through a linker complex (from UniProt P47753 1-286; P47757-2 1-272)
